The values that follow come from patent US20240189442A1 (ALLYGEN GROUP, published 2024).

This assay deals with T1, Ab2B.
T1 construct: The variable domains are the same in both; also called antibody Ab2B
Description: Biacore; Ab2B captured on anti-human Fab chip, peptide as analyte. As for the experimental part:
Anti-human Fab was ligated to Biacore chips at pH 4.5. […] TBPs were flowed through the chip as analytes at 30 μL/min. 10 mM glycine at pH 1.5 was used for regeneration of the chip. Conditions were optimized as needed.

No end group written: not given here.

T1 sequence (heavy, as listed by the source, chain 1 of 2): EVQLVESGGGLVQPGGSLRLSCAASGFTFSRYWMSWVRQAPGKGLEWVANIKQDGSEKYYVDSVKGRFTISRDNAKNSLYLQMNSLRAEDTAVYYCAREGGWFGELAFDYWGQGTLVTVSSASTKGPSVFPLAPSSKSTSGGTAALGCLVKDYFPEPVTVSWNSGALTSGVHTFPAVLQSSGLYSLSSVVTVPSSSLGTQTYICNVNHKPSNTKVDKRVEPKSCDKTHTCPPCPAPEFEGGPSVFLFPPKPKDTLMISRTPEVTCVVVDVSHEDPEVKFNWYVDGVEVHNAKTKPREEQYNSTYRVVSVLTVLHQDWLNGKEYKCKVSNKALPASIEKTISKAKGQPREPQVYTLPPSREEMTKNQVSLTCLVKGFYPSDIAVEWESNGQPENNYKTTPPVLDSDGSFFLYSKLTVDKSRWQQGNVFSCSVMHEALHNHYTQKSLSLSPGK
T1 sequence (light, as listed by the source, chain 2 of 2): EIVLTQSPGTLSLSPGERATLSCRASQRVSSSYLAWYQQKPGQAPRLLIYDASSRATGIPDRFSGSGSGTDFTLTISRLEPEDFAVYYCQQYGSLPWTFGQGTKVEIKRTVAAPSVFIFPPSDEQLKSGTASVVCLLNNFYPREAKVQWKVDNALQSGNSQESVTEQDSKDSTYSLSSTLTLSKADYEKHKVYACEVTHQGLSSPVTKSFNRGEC

As for {NH2‑(PEG)12}-RSQSRSRYYRQRQRSRRRRRRS (also called TBPA) [SEQ ID NO: 151], the binding result was “no binding (tested: 50.0~0.8 nM analyte range)”.
